Assay results as given in patent US20210171647A1 (WUXI BIOLOGICS SHANGHAI, published 2021).

How the values were obtained:
Assay in all cases: ELISA, antibody coated, OX40-ECD.His mutant supernatant; relative to silent alanine substitutions;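 also: captured OX40 mutant protein detected with HRP-labelled anti-His antibody, absorbance read-out, scaled to the mean signal of control mutants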
human OX40-ECD.His P66A = biological target: T1, human OX40-ECD.His P66A (human, UniProt P43489 29-214)
T1 construct: extracellular domain; not shown: C-terminal His-tag
T1 sequence (looked up): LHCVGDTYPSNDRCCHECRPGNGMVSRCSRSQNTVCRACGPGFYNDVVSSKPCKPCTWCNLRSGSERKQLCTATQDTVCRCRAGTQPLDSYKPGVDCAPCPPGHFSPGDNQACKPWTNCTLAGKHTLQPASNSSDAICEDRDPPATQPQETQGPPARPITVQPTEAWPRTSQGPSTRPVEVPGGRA

human OX40-ECD.His Q139A = biological target: T2, human OX40-ECD.His Q139A (human, UniProt P43489 29-214)
T2 construct: extracellular domain; not shown: C-terminal His-tag
T2 sequence (looked up): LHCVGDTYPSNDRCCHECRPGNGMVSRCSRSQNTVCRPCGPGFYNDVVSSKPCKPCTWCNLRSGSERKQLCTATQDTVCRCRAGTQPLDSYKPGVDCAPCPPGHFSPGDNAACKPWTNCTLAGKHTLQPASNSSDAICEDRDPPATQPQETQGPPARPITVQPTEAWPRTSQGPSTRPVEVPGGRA

human OX40-ECD.His H153A = biological target: T3, human OX40-ECD.His H153A (human, UniProt P43489 29-214)
T3 construct: extracellular domain; not shown: C-terminal His-tag
T3 sequence (looked up): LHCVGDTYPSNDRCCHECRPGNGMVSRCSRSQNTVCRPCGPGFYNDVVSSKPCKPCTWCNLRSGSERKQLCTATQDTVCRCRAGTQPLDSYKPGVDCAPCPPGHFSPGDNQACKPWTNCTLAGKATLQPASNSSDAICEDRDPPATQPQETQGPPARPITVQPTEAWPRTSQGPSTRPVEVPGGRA

human OX40-ECD.His R58A = biological target: T4, human OX40-ECD.His R58A (human, UniProt P43489 29-214)
T4 construct: extracellular domain; not shown: C-terminal His-tag
T4 sequence (looked up): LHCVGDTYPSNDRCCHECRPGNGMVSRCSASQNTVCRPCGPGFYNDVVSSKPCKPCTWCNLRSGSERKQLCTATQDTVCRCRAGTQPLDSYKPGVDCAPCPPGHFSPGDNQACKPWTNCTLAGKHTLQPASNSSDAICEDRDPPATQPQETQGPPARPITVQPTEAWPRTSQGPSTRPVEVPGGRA

human OX40-ECD.His D104A = biological target: T5, human OX40-ECD.His D104A (human, UniProt P43489 29-214)
T5 construct: extracellular domain; not shown: C-terminal His-tag
T5 sequence (looked up): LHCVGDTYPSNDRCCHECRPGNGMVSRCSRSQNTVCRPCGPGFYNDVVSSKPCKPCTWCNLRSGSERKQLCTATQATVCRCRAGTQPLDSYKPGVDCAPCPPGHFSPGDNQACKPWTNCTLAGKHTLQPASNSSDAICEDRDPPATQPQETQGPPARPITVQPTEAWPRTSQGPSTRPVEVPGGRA

human OX40-ECD.His P115A = biological target: T6, human OX40-ECD.His P115A (human, UniProt P43489 29-214)
T6 construct: extracellular domain; not shown: C-terminal His-tag
T6 sequence (looked up): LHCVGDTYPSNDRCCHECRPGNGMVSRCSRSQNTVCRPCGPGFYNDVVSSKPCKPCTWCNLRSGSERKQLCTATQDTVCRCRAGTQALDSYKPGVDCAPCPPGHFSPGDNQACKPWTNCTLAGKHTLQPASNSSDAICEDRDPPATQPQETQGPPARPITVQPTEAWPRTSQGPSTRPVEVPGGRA

human OX40-ECD.His W144A = biological target: T7, human OX40-ECD.His W144A (human, UniProt P43489 29-214)
T7 construct: extracellular domain; not shown: C-terminal His-tag
T7 sequence (looked up): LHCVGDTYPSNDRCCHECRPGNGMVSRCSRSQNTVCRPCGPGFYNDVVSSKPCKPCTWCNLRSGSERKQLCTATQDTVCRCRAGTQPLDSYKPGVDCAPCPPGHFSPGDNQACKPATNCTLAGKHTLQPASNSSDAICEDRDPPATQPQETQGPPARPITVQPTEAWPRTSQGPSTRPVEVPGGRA

human OX40-ECD.His S159A = biological target: T8, human OX40-ECD.His S159A (human, UniProt P43489 29-214)
T8 construct: extracellular domain; not shown: C-terminal His-tag
T8 sequence (looked up): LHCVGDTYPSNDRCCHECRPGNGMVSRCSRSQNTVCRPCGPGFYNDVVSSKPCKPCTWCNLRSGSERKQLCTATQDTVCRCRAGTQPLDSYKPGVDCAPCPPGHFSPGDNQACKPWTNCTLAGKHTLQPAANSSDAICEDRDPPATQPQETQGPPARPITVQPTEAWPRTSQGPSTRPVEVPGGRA

human OX40-ECD.His P130A = biological target: T9, human OX40-ECD.His P130A (human, UniProt P43489 29-214)
T9 construct: extracellular domain; not shown: C-terminal His-tag
T9 sequence (looked up): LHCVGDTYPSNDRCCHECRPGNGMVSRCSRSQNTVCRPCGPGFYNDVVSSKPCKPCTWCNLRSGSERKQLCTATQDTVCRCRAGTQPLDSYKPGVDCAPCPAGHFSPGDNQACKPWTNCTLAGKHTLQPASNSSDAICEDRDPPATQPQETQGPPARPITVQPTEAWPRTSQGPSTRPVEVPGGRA

human OX40-ECD.His M52A = biological target: T10, human OX40-ECD.His M52A (human, UniProt P43489 29-214)
T10 construct: extracellular domain; not shown: C-terminal His-tag
T10 sequence (looked up): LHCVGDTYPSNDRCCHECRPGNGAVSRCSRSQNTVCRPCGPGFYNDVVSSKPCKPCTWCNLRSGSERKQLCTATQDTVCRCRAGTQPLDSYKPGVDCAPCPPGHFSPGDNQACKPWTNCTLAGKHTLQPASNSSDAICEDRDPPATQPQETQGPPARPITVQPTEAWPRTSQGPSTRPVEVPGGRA

B1: 1.134.9-u1-IgG1L (antibody, V domains shown)
VH: QVQLQESGPGLVKPSGTLSLTCAVSGGSISSYNWWSWVRQPPGKGLEWIGEIYHGGNTNYNPSLKSRVTMSVDNSKNQFSLKLSSVTAADTAVYYCARAPGDWGGSPYFDFWGQGTLVTVSS
VL: SSELTQDPAVSVALGQTVRITCQGDNLRTYYASWYQQKPGQAPILLIYGRNKRPSGIPDRFSGSSSGNTASLTITGAQAEDEAAYYCNSRDSSGNPVVFGGGTKLTVL
notes: fully human IgG1, lambda
B1 was tested, and the “Fold Change” value (human OX40-ECD.His P66A) was 0.913, the “Fold Change” value (human OX40-ECD.His Q139A) was 0.999 and the “Fold Change” value (human OX40-ECD.His H153A) was 0.997. For the same binder, the “Fold Change” value (human OX40-ECD.His R58A) was 1, the “Fold Change” value (human OX40-ECD.His D104A) was 0.692 and the “Fold Change” value (human OX40-ECD.His P115A) was 0.632. For the same binder, the “Fold Change” value (human OX40-ECD.His W144A) was 0.881, the “Fold Change” value (human OX40-ECD.His S159A) was 0.458 and the “Fold Change” value (human OX40-ECD.His P130A) was 1.01. For the same binder, the “Fold Change” value (human OX40-ECD.His M52A) was 0.977.
